# Reference: patent US20100260765A1 (AstraZeneca / MedImmune, published 2010)
# Residue numbers refer to the chain shown, from its start.
# B1: 21H9 (antibody, V domains shown)
# VH: QVPLVESGGGVVQPGRSLRLSCAASGFTFSSYGMHWVRQAPGKGLEWVAVIWYDGSNKYYADSVQGRFTISRDNSKNTLYLQMNSLRAEDTAVYYCARGVTMVRGLIIARYYYGLDVWGQGTTVTVSS
# VL: DIVMTQTPLSSPVTFGQPASISCRSSQSLVHSDGNTYLSWLQQRPGQPPRLLIYKISNRFFGVPDRFSGSGAGTDFTLKISRVEAEDVGLYYCMQSTQFPLTFGGGTKVEIK
# B2: 27A3 (antibody, V domains shown)
# VH: QLQLQESGPGLVKPSETLSLTCTVSGGSISSRSDYWGWIRQPPGKGLEWIGTIYYSGDTYYNPSLKSRVTISVDTSKNQFSLKLSSVTAADTAVYYCARQQLVLYYFDYWGQGTLVTVSS
# VL: EIVLTQSPGTLSLSPGERATLSCRASQSVSSSYLAWYQQKPGQAPRLLIYATSNRATGIPDRFSGSGSGTDFTLTISRLEPEDFAVYYCQQHGSSPPLTFGGGTKVEIK
# B3: 27D10 (antibody, V domains shown)
# VH: B2 VH with D58S, Y60F
# VL: not shown
# Biological target: T1, KDR (human, UniProt P35968 20-1356)
# T1 sequence (P35968 20-1356): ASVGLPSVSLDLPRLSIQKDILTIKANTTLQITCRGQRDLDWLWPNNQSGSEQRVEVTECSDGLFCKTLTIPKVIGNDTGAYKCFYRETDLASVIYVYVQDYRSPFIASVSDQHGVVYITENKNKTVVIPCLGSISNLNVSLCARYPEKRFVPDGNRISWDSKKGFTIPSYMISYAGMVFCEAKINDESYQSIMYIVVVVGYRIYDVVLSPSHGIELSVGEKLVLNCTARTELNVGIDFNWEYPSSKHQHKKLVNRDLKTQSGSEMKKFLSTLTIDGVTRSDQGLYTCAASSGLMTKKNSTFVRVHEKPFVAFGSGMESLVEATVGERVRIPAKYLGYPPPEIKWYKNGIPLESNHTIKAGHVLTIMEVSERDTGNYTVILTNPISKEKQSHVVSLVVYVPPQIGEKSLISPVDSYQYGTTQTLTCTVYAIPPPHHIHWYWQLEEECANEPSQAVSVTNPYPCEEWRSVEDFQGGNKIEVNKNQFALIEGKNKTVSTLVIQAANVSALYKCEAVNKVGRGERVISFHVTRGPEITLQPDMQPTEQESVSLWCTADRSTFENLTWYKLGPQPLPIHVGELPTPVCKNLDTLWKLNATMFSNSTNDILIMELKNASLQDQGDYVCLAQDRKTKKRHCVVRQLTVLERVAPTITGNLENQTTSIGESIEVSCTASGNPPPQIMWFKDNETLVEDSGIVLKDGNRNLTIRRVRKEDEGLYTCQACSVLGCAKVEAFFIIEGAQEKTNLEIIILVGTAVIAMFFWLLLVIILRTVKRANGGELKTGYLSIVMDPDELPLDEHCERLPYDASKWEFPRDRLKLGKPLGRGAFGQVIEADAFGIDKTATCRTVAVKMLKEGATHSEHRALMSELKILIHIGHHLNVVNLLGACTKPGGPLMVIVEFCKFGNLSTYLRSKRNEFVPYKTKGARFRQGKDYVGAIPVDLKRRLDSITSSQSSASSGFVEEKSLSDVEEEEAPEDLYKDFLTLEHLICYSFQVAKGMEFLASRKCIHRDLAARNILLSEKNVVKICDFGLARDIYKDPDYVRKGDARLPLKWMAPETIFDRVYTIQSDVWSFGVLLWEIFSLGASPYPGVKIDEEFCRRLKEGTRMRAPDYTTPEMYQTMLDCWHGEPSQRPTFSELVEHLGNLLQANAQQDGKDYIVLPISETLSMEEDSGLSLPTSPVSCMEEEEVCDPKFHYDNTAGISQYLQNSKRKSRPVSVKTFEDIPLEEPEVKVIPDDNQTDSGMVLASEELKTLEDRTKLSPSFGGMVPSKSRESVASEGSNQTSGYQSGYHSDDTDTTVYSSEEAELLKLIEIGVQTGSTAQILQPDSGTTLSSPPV
# Test: cell-based or functional assay
"Activity at 133 nM (% Inhibition), 1-hour Pre-incubation at 4° C., Average [%]","Activity at 133 nM (% Inhibition), 1-hour Pre-incubation at 4° C., N = 1 [%]","Activity at 133 nM (% Inhibition), 1-hour Pre-incubation at 4° C., N = 2 [%]",Binder
26,21,31,B1
67,63,72,B2
65,60,69,B3

# Biological target: T1, KDR
# Test: cell-based or functional assay
# Remark: another data set of the same source
"Activity at 133 nM (% Inhibition), 24-hour Pre-incubation at 37° C., Average [%]","Activity at 133 nM (% Inhibition), 24-hour Pre-incubation at 37° C., N = 1 [%]","Activity at 133 nM (% Inhibition), 24-hour Pre-incubation at 37° C., N = 2 [%]",Binder
-1,-3,2,B1
9,19,0,B2
8,19,-4,B3

# Biological target: T1, KDR
# Test: cell-based or functional assay
# Remark: another data set of the same source
"% of Max VEGF KDR pTyr Activity (at 133 nM antibody concentration), Average [%]","% of Max VEGF KDR pTyr Activity (at 133 nM antibody concentration), N = 1 [%]","% of Max VEGF KDR pTyr Activity (at 133 nM antibody concentration), N = 2 [%]",Binder
15,16,13,B1
19,22,17,B2
18,19,17,B3

# Biological target: T1, KDR
# Test: cell-based or functional assay
# Remark: another data set of the same source
Binder,"Activity at 133 nM Antibody Concentration (% Survival Inhibition), Average [%]","Activity at 133 nM Antibody Concentration (% Survival Inhibition), N = 1 [%]","Activity at 133 nM Antibody Concentration (% Survival Inhibition), N = 2 [%]"
B1,-18,-20,-16
B2,83,86,81
B3,76,84,68

# Biological target: T1, KDR
# Test: cell-based or functional assay
# Remark: another data set of the same source
"% Inhibition of VEGF165-mediated 6-keto Prostaglandin F1α release at 133 nM Antibody Concentration, Average [%]","% Inhibition of VEGF165-mediated 6-keto Prostaglandin F1α release at 133 nM Antibody Concentration, N = 1 [%]","% Inhibition of VEGF165-mediated 6-keto Prostaglandin F1α release at 133 nM Antibody Concentration, N = 2 [%]",Binder
33,5,61,B1
88,54,121,B2
84,56,111,B3
